Measurements published in patent US20220089784A1 (University of California, published 2022).
Read-outs that look alike come from different tables or passages of the source.

B1: 26E6 scFv (scFv)
scFv: EVQLQQSGPELVKPGASVKISCKASGYTFADYYINWVKQSHGKSLEWIGDFNPNNGDHSYNQKFKDKATLTVDESSNTAYMELRSLTSEDSAVYYCTREFYYYFDVWGTGTTVTVSSVDLKSGGSTSGSGKPGSGEGSSGSARDIVMSQSPLSLPVSLGDQAFISCRFSQSIVHSNGNTYLEWYLQKPGQSPKLLIYKVSNRFSGVPDRFSGSGSGTDFTLKISRVEAEDLGVYYCFQGSHVPYTFGGGTKLEIK
notes: mouse
B2: 26G5 scFv (scFv)
scFv: EVQLQESGPGLAKPSQTLSLTCSVTGYSITSDYWNWIRKFPGNKLEYMGYISYSGSTYYNPSLKSRISITRDTSKNQYYLQLNSVTTEDTATYYCARSFYDGYLYFDYWGQGTTVTVSSVDLKSGGSTSGSGKPGSGEGSSGSAREIVLTQSPAILSASPGEKVTMTCSASSSVSYMYWYQQKPGSSPRLLIYDTSNLASGVPARFSGSGSGTSYSLTISRVEAEDAATYYCQQWSSYPPTFGDGTRLEIK
notes: mouse
B3: 26C2 scFv (scFv)
scFv: QVQLKQSGPELVKPGASVKLSCKASGYTFTSYDINWVKQRPGQGLEWIGWIYPRDDITKYNEKFKDKATLTVDTSSSTAYMELHSLTSEDSAVYFCARGDYYGSLDYWGQGTTLTVSSVDLKSGGSTSGSGKPGSGEGSSGSARQIVLTQSPAIMSASPGEKVTMTCSASSSVSYMHWYQQKSSTSPKLWIYDTSKLASGVPGRFSGSGSGNSYSLTISSMEAEDVATYYCFQGSGYPLTFGAGTKLEIK
notes: mouse
B4: 42G8 scFv (scFv, V domains shown)
VH: EVQLVPSGGNLVQPGGSLRLSCAATGPIGSHWMTWVRQAPGQGLEWVANINLDGTEKFYVDSVKGRFTVSRDNRKSSVFLQMNNLRVDDTAVYYCARLQWGGYNGWLSPWGQGTLVTVSS
VL: DIVMTQSPPSLSASVGDRVSLTCRASEYIGTSLNWYQQKPGKAPKLLIYAASALHSGVPSRFSGSGSGTDFTLTISGLQPEDFATYYCQQTNDLPLTFGGGTKLEIK
B5: 6A8M IgG (antibody, V domains shown)
VH: QVQLKESGPGLVKPSQTVSLTCTVTGYSITNGNHWWNWIRQVSGSKLEWIGYISSSGYTDINPSLKSRISITRDTSKNQLFLQLNSVTTEDIATYYCARDDGYYEALDYWGQGTSVTVSS
VL: DIVMSQSPAIMSASPGEKVTLTCSASSSVSSNYLYWYQQKPGSSPKLWIYSTSNLASGVPARFSGSGSGTSYSLTISRVEAEDAATYYCQQWSSNPPTFGGGTKLEIK
notes: IgG converted from scFv
B6: B4 (antibody) (antibody, V domains shown)
VH: QVQLVESGGGVVRPGGSLRLSCAASGFTFDDYGMSWVRQAPGKGLEWVSAINWNGGNTGYADSVKGRFTISRDNAKNSLYLQMNSLRVEDTALYHCAREGDYGGLYFDYWGQGTLVTVSS
VL: not shown

How the values were obtained:
BoNT/B1 = target: T1, BoNT/B1 (Clostridium botulinum, UniProt P10844 2-1291); experiment: yeast scFv FACS
T1 sequence: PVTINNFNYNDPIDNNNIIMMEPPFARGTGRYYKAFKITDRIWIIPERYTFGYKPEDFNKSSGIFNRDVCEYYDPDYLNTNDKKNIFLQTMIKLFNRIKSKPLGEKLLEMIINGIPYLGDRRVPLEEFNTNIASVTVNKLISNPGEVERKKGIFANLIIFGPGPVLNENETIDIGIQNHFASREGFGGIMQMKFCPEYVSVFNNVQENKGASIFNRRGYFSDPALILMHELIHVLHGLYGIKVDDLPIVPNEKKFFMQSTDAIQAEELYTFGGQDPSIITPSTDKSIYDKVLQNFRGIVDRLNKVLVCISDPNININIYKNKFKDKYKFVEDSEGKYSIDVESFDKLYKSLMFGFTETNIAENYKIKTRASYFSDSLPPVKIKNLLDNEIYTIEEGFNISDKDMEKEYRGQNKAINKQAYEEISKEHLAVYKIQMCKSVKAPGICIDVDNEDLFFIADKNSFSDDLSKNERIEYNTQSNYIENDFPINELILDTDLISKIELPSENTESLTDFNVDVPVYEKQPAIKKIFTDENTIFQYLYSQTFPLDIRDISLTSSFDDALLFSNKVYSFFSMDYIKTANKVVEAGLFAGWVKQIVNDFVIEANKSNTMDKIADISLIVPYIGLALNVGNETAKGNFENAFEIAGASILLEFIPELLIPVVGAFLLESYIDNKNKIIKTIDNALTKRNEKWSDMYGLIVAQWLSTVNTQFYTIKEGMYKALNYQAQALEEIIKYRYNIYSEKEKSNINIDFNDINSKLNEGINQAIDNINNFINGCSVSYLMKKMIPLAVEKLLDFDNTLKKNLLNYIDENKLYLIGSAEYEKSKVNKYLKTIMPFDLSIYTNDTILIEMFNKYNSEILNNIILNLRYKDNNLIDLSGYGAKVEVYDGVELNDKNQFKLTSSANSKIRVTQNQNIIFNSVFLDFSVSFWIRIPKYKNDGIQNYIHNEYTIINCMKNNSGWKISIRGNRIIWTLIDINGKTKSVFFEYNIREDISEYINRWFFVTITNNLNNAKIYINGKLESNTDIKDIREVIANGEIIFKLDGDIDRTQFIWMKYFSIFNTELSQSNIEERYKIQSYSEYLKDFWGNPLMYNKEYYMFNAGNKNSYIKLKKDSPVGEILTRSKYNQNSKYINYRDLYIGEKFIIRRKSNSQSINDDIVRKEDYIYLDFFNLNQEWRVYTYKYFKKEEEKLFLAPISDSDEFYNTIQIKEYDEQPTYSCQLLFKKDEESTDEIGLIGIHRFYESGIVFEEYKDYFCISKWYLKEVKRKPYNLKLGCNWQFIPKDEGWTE

[1] = target: T2, BoNT/B HC (C-terminal domain of the BoNT/B heavy chain, recombinant) (Clostridium botulinum, UniProt P10844 853-1291); experiment: yeast scFv FACS
T2 sequence: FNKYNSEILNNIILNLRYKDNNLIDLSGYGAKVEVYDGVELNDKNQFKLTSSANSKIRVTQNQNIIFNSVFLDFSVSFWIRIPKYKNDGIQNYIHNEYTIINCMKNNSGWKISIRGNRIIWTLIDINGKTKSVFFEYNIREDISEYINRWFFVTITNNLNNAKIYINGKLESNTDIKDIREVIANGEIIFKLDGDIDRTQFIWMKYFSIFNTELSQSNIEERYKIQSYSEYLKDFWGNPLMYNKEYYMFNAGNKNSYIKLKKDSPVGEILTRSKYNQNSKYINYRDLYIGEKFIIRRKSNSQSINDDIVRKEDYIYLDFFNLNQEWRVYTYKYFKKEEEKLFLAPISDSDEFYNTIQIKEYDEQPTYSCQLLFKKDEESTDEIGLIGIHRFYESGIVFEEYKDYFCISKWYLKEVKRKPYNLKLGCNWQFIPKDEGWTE

[2] = target: T3, BoNT/F1 (proteolytic BoNT/F) (Clostridium botulinum, UniProt A7GBG3 1-1278)
T3 sequence: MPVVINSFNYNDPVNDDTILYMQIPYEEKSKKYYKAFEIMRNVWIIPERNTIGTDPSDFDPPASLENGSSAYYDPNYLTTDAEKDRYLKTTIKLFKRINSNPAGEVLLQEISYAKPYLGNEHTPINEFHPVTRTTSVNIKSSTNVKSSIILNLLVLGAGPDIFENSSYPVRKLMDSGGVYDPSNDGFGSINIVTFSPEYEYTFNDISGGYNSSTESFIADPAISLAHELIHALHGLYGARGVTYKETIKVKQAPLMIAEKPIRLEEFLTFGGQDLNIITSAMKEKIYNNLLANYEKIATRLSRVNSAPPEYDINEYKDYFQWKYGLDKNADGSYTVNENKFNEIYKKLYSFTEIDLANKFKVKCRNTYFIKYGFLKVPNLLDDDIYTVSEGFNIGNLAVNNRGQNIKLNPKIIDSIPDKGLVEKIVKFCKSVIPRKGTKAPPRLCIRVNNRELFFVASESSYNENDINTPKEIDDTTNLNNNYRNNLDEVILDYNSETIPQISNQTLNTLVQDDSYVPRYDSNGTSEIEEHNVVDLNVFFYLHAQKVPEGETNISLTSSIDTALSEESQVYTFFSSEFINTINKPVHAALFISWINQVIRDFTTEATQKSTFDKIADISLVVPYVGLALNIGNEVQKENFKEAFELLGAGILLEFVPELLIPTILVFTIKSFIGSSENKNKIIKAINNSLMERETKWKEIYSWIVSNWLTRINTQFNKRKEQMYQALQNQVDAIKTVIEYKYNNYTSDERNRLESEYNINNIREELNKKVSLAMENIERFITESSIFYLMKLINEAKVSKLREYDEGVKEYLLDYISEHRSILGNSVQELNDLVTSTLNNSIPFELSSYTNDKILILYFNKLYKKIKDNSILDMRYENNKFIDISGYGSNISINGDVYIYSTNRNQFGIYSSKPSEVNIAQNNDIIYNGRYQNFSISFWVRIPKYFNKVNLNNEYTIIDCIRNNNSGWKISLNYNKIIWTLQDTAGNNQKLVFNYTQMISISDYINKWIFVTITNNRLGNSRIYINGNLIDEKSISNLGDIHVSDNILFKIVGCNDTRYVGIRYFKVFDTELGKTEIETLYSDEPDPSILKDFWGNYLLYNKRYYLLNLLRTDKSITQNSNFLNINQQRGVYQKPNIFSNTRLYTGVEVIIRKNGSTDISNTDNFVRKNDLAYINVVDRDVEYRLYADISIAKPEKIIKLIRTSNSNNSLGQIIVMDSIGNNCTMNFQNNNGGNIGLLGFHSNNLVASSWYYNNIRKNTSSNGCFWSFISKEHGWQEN

BoNT/F 202F = target: T4, BoNT/F 202F (Clostridium botulinum, UniProt P30996 1-1274); experiment: yeast scFv FACS
T4 sequence: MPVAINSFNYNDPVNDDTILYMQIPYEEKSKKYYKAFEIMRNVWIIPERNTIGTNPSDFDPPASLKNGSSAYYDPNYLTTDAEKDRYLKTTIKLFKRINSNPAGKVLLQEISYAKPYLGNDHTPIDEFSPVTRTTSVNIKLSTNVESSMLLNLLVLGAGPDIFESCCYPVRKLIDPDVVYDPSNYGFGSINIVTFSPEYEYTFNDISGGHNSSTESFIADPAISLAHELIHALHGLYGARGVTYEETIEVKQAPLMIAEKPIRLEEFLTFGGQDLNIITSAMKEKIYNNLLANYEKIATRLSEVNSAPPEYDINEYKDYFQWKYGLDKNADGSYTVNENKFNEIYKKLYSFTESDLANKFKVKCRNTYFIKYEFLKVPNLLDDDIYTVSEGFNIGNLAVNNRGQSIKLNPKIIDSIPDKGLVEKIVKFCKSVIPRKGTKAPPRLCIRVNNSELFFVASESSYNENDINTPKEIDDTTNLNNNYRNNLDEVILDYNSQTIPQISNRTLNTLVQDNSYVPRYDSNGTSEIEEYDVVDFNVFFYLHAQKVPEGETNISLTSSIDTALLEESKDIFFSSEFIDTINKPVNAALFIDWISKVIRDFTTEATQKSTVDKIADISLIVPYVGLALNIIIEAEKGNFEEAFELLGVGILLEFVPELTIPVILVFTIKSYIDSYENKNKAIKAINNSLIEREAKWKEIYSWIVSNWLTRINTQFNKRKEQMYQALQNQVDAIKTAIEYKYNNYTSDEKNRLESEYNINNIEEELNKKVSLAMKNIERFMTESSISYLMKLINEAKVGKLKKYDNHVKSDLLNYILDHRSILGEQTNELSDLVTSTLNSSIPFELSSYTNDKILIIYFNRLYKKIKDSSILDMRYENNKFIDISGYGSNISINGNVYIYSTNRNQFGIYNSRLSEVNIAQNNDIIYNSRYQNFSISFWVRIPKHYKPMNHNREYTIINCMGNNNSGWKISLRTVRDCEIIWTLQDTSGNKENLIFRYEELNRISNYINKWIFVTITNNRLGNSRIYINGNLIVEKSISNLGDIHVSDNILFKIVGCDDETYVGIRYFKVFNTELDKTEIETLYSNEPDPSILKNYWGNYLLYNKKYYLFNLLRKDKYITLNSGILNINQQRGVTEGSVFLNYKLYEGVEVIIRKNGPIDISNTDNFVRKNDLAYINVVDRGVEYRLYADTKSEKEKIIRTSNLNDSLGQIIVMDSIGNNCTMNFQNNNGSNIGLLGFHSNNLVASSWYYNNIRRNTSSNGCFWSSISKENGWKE

[3] = target: T3, BoNT/F1 (proteolytic BoNT/F); experiment: yeast scFv FACS
[4] = target: T5, BoNT/A1 holotoxin (Hall hyper) (Clostridium botulinum, UniProt P0DPI0 2-1296); experiment: KinExA, IgG
[5] = target: BoNT/A light chain (recombinant) (Clostridium botulinum, UniProt P0DPI0 1-448); experiment: KinExA, IgG
[6] = target: T5, BoNT/A1 holotoxin (Hall hyper)

Binder | Kd (BoNT/B1) [nM] | Kd [1] [nM] | also measured
B1 | 4.85 | 0.889 | –
B2 | 3.91 | 1.79 | –
B3 | 23.7 | 7.76 | –
B4 | – | – | fold increase in affinity over scFv 4E17.2 [2]: ~6 fold; binding result (BoNT/F 202F): binds; Kd [3]: 0.243 nM
B5 | – | – | Kd [4]: 0.852 nM; Kd [5]: 4.99 nM
B6 | – | – | Kd [6]: 0.0931 nM
